Test results reported in the Human Domainome abundance scans (Beltran et al. 2025).
± gives the uncertainty stated by the source.

B1: Integrator complex subunit 12, residues 155 to 213; numbered along this chain, Q96CB8 (parent)
chain: AMEMGLACVVCRQMMVASGNQLVECQECHNLYHRDCHKPQVTDKEANDPRLVWYCARCT

Variants of: B1
Experiment: abundance fitness (aPCA) (normalised: wild type 0, dead -1); higher = more abundant; growth selection in yeast, the domain comes from the species named
Settings: Homo sapiens

Variant	abundance fitness
AMEMGLACVVCRQMMVASGNQLVECQECHNLYHRDCIKPQVTDKEANDPRLVWYCARCT [H37I]	-0.007 ± 0.035
AMEMGLACVVCRQMMVASGNQLVECQEPHNLYHRDCHKPQVTDKEANDPRLVWYCARCT [C28P]	-0.787 ± 0.081
YMEMGLACVVCRQMMVASGNQLVECQECHNLYHRDCHKPQVTDKEANDPRLVWYCARCT [A1Y]	-0.168 ± 0.13
AMEMGLACVVCRQMMVASGNQLVECQECHNLYHADCHKPQVTDKEANDPRLVWYCARCT [R34A]	-0.054 ± 0.062
AMEMGLACVVCRQMMVASGNQLVECQECHNLYHRKCHKPQVTDKEANDPRLVWYCARCT [D35K]	-0.087 ± 0.057
AMEMGAACVVCRQMMVASGNQLVECQECHNLYHRDCHKPQVTDKEANDPRLVWYCARCT [L6A]	0.099 ± 0.038
AMEIGLACVVCRQMMVASGNQLVECQECHNLYHRDCHKPQVTDKEANDPRLVWYCARCT [M4I]	0.023 ± 0.036
AMEMGLACVVCRQMMWASGNQLVECQECHNLYHRDCHKPQVTDKEANDPRLVWYCARCT [V16W]	-0.148 ± 0.055
AMEMGLACVVCRQMMVASGNWLVECQECHNLYHRDCHKPQVTDKEANDPRLVWYCARCT [Q21W]	-0.223 ± 0.065
AMEMGLACVVCRQMMVASGNQLVECQECHNLYHRDCHKPQVTDKEANSPRLVWYCARCT [D48S]	-0.119 ± 0.062
AMEMGLACVVCRQMMVASGNQLVECQECHNLYHRDCLKPQVTDKEANDPRLVWYCARCT [H37L]	-0.145 ± 0.033
AMEMGLACVVCRQMNVASGNQLVECQECHNLYHRDCHKPQVTDKEANDPRLVWYCARCT [M15N]	0.063 ± 0.034
AMEMGLACVVCRQMMVASGNQLVECQECHNLYHRDCHKPQVTDKEAIDPRLVWYCARCT [N47I]	-0.11 ± 0.081
AMEMGLACVVCRQMMVASGNQLVECQECHNLYHRDCHKPQVTDKEANDPRLNWYCARCT [V52N]	-0.012 ± 0.08
AMEMGLACVVCRQMMVASGNQLVECQECHNLYHRECHKPQVTDKEANDPRLVWYCARCT [D35E]	0.107 ± 0.051
AMEMGLAMVVCRQMMVASGNQLVECQECHNLYHRDCHKPQVTDKEANDPRLVWYCARCT [C8M]	-1.19 ± 0.11
AMEMGLACIVCRQMMVASGNQLVECQECHNLYHRDCHKPQVTDKEANDPRLVWYCARCT [V9I]	-0.101 ± 0.035
AMEMGLACPVCRQMMVASGNQLVECQECHNLYHRDCHKPQVTDKEANDPRLVWYCARCT [V9P]	-0.289 ± 0.045
AMEMGLACVVCRQMMVASGNQLVECQECHNLYHRDCHKPQVTDKEAVDPRLVWYCARCT [N47V]	-0.066 ± 0.048
AMEMGLACVVCRQMMVASGNQLVECQECHNLYHRDCHKRQVTDKEANDPRLVWYCARCT [P39R]	-0.279 ± 0.038
AMEMGLACVVCRQMMVASGNQLVECQECHNLYHRDCQKPQVTDKEANDPRLVWYCARCT [H37Q]	-0.176 ± 0.085
AMEMGLACVVCRQMMVASGNQLVERQECHNLYHRDCHKPQVTDKEANDPRLVWYCARCT [C25R]	-0.714 ± 0.084
AMEMGLACVVCRQMMVASGNQLVECQECHNLYHRDCHKPQVMDKEANDPRLVWYCARCT [T42M]	-0.153 ± 0.051

Variant	abundance fitness
AMEMGLACVVCRQMMVASGNQLVECQECHNLYHRDCHKPQVTDKEANDPRLVDYCARCT [W53D]	-0.104 ± 0.14
AMEMGLACVVCRQMMVASGNQLVECQECHNLYHWDCHKPQVTDKEANDPRLVWYCARCT [R34W]	0.143 ± 0.1
AMEMGLACVVCRQMMVASFNQLVECQECHNLYHRDCHKPQVTDKEANDPRLVWYCARCT [G19F]	-0.353 ± 0.05
AMEMGPACVVCRQMMVASGNQLVECQECHNLYHRDCHKPQVTDKEANDPRLVWYCARCT [L6P]	-0.03 ± 0.046
AMEMGLACVVCRQMMVASGNQLVECQEEHNLYHRDCHKPQVTDKEANDPRLVWYCARCT [C28E]	-0.845 ± 0.075
AMEMGLACVVCRQMMVASGNQLVEIQECHNLYHRDCHKPQVTDKEANDPRLVWYCARCT [C25I]	-0.906 ± 0.1
AMEMGLACVVCRQMMVASGNQLVECQECHNLYIRDCHKPQVTDKEANDPRLVWYCARCT [H33I]	-0.873 ± 0.047
AMEMGLACVVCRQMMVASGTQLVECQECHNLYHRDCHKPQVTDKEANDPRLVWYCARCT [N20T]	-0.007 ± 0.038
AMEMGLACVVCRQMMVASGLQLVECQECHNLYHRDCHKPQVTDKEANDPRLVWYCARCT [N20L]	-0.219 ± 0.035
AMEMGLACVVCRQMMVASGNQLVECQECHNLYHRDCHKPQVTDKEANDTRLVWYCARCT [P49T]	0.023 ± 0.073
PMEMGLACVVCRQMMVASGNQLVECQECHNLYHRDCHKPQVTDKEANDPRLVWYCARCT [A1P]	-0.581 ± 0.19
AMEMGLACVVCRQMMVASGNQLVECQECHNLYHRDCHKPQVTDKEANDPRLVWYCAKCT [R57K]	-0.029 ± 0.047
AMEMGLACVVGRQMMVASGNQLVECQECHNLYHRDCHKPQVTDKEANDPRLVWYCARCT [C11G]	-0.958 ± 0.06
AMTMGLACVVCRQMMVASGNQLVECQECHNLYHRDCHKPQVTDKEANDPRLVWYCARCT [E3T]	-0.137 ± 0.041
AMEMGLACVVCRQMMVASGNQLVECQECHNLYHRDCHKPQVTDKEANDPRLVWYCARCS [T59S]	0.045 ± 0.064
AMEMGLACVVCRQMMVASGNQLVECQECHNLYHRDCHKPQVTDKEANDPRVVWYCARCT [L51V]	-0.003 ± 0.052
AMEMGLACVVCRQMMVASGNQLVECQECHNLYHRDCHKPQVTDKEANDPHLVWYCARCT [R50H]	-0.06 ± 0.11
AMEMGLACVVCRQMMVASGNQLPECQECHNLYHRDCHKPQVTDKEANDPRLVWYCARCT [V23P]	-0.518 ± 0.046
AMEMGLACVVCRQMMVASGNQLVECQECHNLYHRDCHKPQVTDKEANDPRRVWYCARCT [L51R]	0.062 ± 0.04
AMEMGLACVVCRQMMVASGNQLVECQECHVLYHRDCHKPQVTDKEANDPRLVWYCARCT [N30V]	-0.129 ± 0.039
AMEMGLACVVCRQMMVASGNQLVECQECHNLYHRDCHKPQVTDKEANDPRLVWYYARCT [C55Y]	-0.913 ± 0.13
AMEMGLACVVCRQMMVASGNQLVECFECHNLYHRDCHKPQVTDKEANDPRLVWYCARCT [Q26F]	-0.062 ± 0.046
